Data on 1 molecule can be found in patent US20130059772A1, “Use of Repeat Sequence Protein Polymers in Personal Care Compositions” (DANISCO US INC., priority 2003, published 2013).

One data set has as its system elastase. In words: Elastase inhibition assay (fibroblast lysate, STANA substrate). It counts as biochemical, human. Here is the method:
The RSPP test materials were also tested to determine their effect(s) on elastase activity. In these experiments, human dermal fibroblasts were used as a source of the elastase enzyme. This enzyme was partially purified from the fibroblasts by lysing the cells in an elastase buffer and retaining the soluble portion of the lysate. Portions of this fibroblast lysate were then incubated with test materials and a synthetic elastase substrate, Suc-(Ala3)-p-Nitroaniline (STANA). Elastase acts upon this substrate to release p-nitroaniline, which can be detected spectrophotometrically by measuring the absorbance at a wavelength of 405 nm. An inhibition of the elastase enzyme is noted by a decrease in the amount of released p-nitroaniline when compared to uninhibited enzyme.
Cells were expanded and passed until a sufficient number of cells had been grown (not exceeding 10 passages). When a sufficient number of cells had been grown, the fibroblast lysate containing the elastase enzyme was prepared as follows:
The fibroblasts were washed twice with 15 ml of phosphate buffered saline with each wash removed via aspiration. Ice cold PBS (7.5 ml) was then added to the flask and the cells were detached with a cell scraper. The detached cells/PBS was transferred to a 15 ml centrifuge tube on ice. The flask was rinsed again with 7.5 ml of PBS, which was also transferred to the 15 ml tube. […] The protein concentration of the fibroblast lysate was determined using the Pierce BCA Protein Assay kit (see below for details) and the fibroblast lysate was stored at −75° C. until used (for up to 1 year).
Upon determining the protein concentration of the lysate, a small sample was obtained and the elastase activity of the lysate was determined at 1×, 0.5× and 0.25× concentrations. The activity was determined for each of the different concentrations in exactly the same way that the uninhibited sample was treated in the elastase assay (see below). […] After 1.25 hours, the well plate was removed and read in a 96-well plate reader at 405 nm. The mean absorbances were plotted versus concentration. […]

Data set [1] is described as follows: Isoelectric point determination (IEF gel). It counts as physicochemical. The note with it: stated in production example. Here is the method: In this Example, experiments performed to determine the isoelectric point and cloud point of SELP47K (Example 1) are described. The isoelectric point of SELP47K was determined by electrophoresing 5 mg/ml SELP47K solution using Isoelectric Focusing Electrophoresis (IEF) gel and Novex electrophoresis apparatus along with protein standards markers.

B1: GC2596-26-E: collagen-like repeat sequence protein polymer, head-[(GAHGPAGPK)2(GAQGPAGPG)24(GAHGPAGPK)2]4-tail; SEQ ID NO:34 (Example 5) (protein)
chain: MDPVVLQRRDWENPGVTQLNRLAAHPPFASDPMGAHGPAGPKGAHGPAGPKGAQGPAGPGGAQGPAGPGGAQGPAGPGGAQGPAGPGGAQGPAGPGGAQGPAGPGGAQGPAGPGGAQGPAGPGGAQGPAGPGGAQGPAGPGGAQGPAGPGGAQGPAGPGGAQGPAGPGGAQGPAGPGGAQGPAGPGGAQGPAGPGGAQGPAGPGGAQGPAGPGGAQGPAGPGGAQGPAGPGGAQGPAGPGGAQGPAGPGGAQGPAGPGGAQGPAGPGGAHGPAGPKGAHGPAGPKGAHGPAGPKGAHGPAGPKGAQGPAGPGGAQGPAGPGGAQGPAGPGGAQGPAGPGGAQGPAGPGGAQGPAGPGGAQGPAGPGGAQGPAGPGGAQGPAGPGGAQGPAGPGGAQGPAGPGGAQGPAGPGGAQGPAGPGGAQGPAGPGGAQGPAGPGGAQGPAGPGGAQGPAGPGGAQGPAGPGGAQGPAGPGGAQGPAGPGGAQGPAGPGGAQGPAGPGGAQGPAGPGGAQGPAGPGGAHGPAGPKGAHGPAGPKGAHGPAGPKGAHGPAGPKGAQGPAGPGGAQGPAGPGGAQGPAGPGGAQGPAGPGGAQGPAGPGGAQGPAGPGGAQGPAGPGGAQGPAGPGGAQGPAGPGGAQGPAGPGGAQGPAGPGGAQGPAGPGGAQGPAGPGGAQGPAGPGGAQGPAGPGGAQGPAGPGGAQGPAGPGGAQGPAGPGGAQGPAGPGGAQGPAGPGGAQGPAGPGGAQGPAGPGGAQGPAGPGGAQGPAGPGGAHGPAGPKGAHGPAGPKGAHGPAGPKGAHGPAGPKGAQGPAGPGGAQGPAGPGGAQGPAGPGGAQGPAGPGGAQGPAGPGGAQGPAGPGGAQGPAGPGGAQGPAGPGGAQGPAGPGGAQGPAGPGGAQGPAGPGGAQGPAGPGGAQGPAGPGGAQGPAGPGGAQGPAGPGGAQGPAGPGGAQGPAGPGGAQGPAGPGGAQGPAGPGGAQGPAGPGGAQGPAGPGGAQGPAGPGGAQGPAGPGGAQGPAGPGGAHGPAGPKGAHGPAGPKMDPGRYQLSAGRYHYQLVWCQK
modifications: silk-elastin repeat sequence protein copolymer
Consider B1, for which the “Percent Inhibition” value is listed as −13% with elastase (0.1%), −20% in the data set with elastase (0.5%) and −5% with elastase (1%). The “pI of the protein” value in data set [1] stood at 11.18.
